# Experimental data reported in US9751932B2, “Anti-big-endothelin-1 (big-ET-1) antibodies and uses thereof” (Regeneron Pharmaceuticals, Inc., priority 2012, dated 2017).
# Entries after “also recorded” stand apart in the source; their conditions may differ.
# T1: human big-ET-1 (SEQ ID NO:434) (Homo sapiens, UniProt P05305)
# T1 sequence (P05305 53-90 limits assumed): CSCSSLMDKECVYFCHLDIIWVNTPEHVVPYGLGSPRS
# T2: mouse big-ET-1 (SEQ ID NO:437) (Mus musculus, UniProt P22387)
# T2 sequence (P22387 53-91 limits assumed): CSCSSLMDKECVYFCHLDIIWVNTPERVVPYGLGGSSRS
# T3: mouse big-ET-1 (cleavage by mouse ECE-1) (Mus musculus, UniProt P22387)
# T3 sequence (P22387 53-91): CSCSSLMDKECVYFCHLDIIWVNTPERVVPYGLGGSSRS
# T4: human big-ET-1 (cleavage by human ECE-1) (Homo sapiens, UniProt P05305)
# T4 sequence (P05305 53-90 limits assumed): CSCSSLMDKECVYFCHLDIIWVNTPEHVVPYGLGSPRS
# Experiments:
# [1] = system: C57BL/6 mice challenged with human big-ET-1 peptide; experiment: Mean arterial pressure changes after human big-ET-1 challenge in catheterized mice; format: in vivo, mouse
# Description: The purpose of this Example was to evaluate the ability of an exemplary anti-big-ET-1 antibody (H2M6490N) to block […] increases in arterial pressure. Mice that had been previously infused with either blocking anti-big-ET-1 antibody or isotype control were challenged with big-ET-1 peptide. Changes in arterial pressure stemming from either big-ET-1 endogenous conversion to small-ET-1, or having its conversion blocked by circulating anti-big-ET-1 antibody, were measured. To facilitate real time measurements of arterial pressure during these experiments, mice were catheterized using standard protocols.
# Briefly, naïve Taconic C57BL/6 mice (8-10 weeks of age) were anesthetized with isoflurane and the skin overlying the carotid artery and jugular vein was cut. Both the right jugular vein and left carotid artery were isolated, taking care not to damage the Vagus nerve or other blood vessels. Using standard techniques, the jugular vein was retracted and a 32-gauge needle (bent at a 90° angle) was used to puncture the vein for insertion of a saline-filled jugular vein catheter. The left carotid artery was then isolated and a Millar Micro-Tip® catheter was introduced using standard protocols. During all procedures a temperature probe was used to monitor animal body temperature, which was kept around 36.5° C. using a Gaymar heated water circulating pad. The above procedures allowed real-time pressure measurements (systolic pressure, diastolic pressure, mean arterial pressure, and body temperature) to be recorded during all big ET-1 challenge experiments.
# In the first study, 150 μg (˜2 mg/kg; 1×10^−9 Moles) of H2M6490N or isotype control mAb was injected i.v. using the jugular vein port followed by a bolus of saline to flush the catheter. This caused a slight and transient drop in pressure that returned to baseline and established the T=0 for the experiment.
# In a second experiment, the same experimental protocol was utilized except that H2M6490N (˜2 mg/kg; 1×10^−9 Moles) was injected subcutaneously (s.c.) into the mice 24 hrs before challenge with human big-ET-1 peptide.
# [2] = biological target: T1, human big-ET-1 (SEQ ID NO:434); experiment: Surface plasmon resonance (Biacore) binding, mAb capture format, 37° C.; conditions: for ka / kd: analyte human big-ET-1, mAb capture
# Description: (§1) Measurements were conducted on a T200 Biacore instrument (Biacore Life Sciences division of GE Healthcare, Piscataway, N.J.). […] Different concentrations of small-ET-1 (SEQ ID NO:435), human big-ET-1 (SEQ ID NO:434) or mouse big-ET-1 (SEQ ID NO:437) were injected over the anti-big-ET-1 captured surfaces at a flow rate of 100 μl/min. Peptide binding was monitored for 3 min while dissociation of mAb-bound peptide was monitored for 4 min in HBST running buffer (0.01 M HEPES pH 7.4, 0.15 M NaCl, 3 mM EDTA, 0.005% v/v Surfactant P20). Kinetic association (ka) and dissociation (kd) rate constants were determined by processing and fitting the data to a 1:1 binding model using Scrubber 2.0 curve fitting software.
# [3] = biological target: T2, mouse big-ET-1 (SEQ ID NO:437); experiment: as above
# Description: as §1
# [4] = biological target: T1, human big-ET-1 (SEQ ID NO:434); experiment: MALDI-TOF detection of C-term peptide product from cleavage of big-ET-1 by mouse ECE-1; format: biochemical; parameters: purchased R&D Systems (mouse ECE-1 only)
# Source text: Matrix Assisted Laser Desorption Ionization Time of Flight (MALDI-TOF) mass spectrometry was used to determine if selected anti-big-ET-1 antibodies could block the conversion of human big-ET-1 (SEQ ID NO:434) or mouse big-ET-1 (SEQ ID NO:437) into its respective peptides in the presence of mouse endothelin converting enzyme 1 (ECE-1). Human big-ET-1 is specifically cleaved by mECE-1 at Trp-21/Val-22 forming both biologically active small-ET-1 (SEQ ID NO:435; MH^+ 2474) and a non-active C-term product (amino acids 22-38 of SEQ ID NO:434; MH^+ 1809). Mouse big-ET-1 is cleaved at Trp-21/VaI-22 into small-ET-1 (SEQ ID NO:435; MH^+ 2474) and its non-active C-term product (amino acids 22-39 of SEQ ID NO:437; MH^+ 1875). The appearance or absence of these masses, in the presence of antibody, can be monitored by MALDI-TOF. In the example below, the presence or absence of the C-term products served as an indicator for big-ET-1 cleavage since these peptides ionize more efficiently than small-ET-1 (SEQ ID NO:435; MH^+ 2474), thereby yielding a more sensitive readout.
# Briefly, human or mouse big-ET-1 (0.5 μM) was mixed with antibody (2.5 μM), in phosphate buffered saline (PBS), at a 1:5 molar ratio (big-ET-1:mAb). After a 1-hr incubation (25° C.), mouse ECE-1 (R&D Systems) was added at 40 nM and the solution was placed at 37° C. Aliquots for mass spectrometry analysis were taken at 0, 15, 30 and 60 minutes. Each aliquot was desalted via C18 Ziptip (Millipore) and analyzed in reflextron-positive mode using a Bruker Ultraflextreme MALDI-TOF instrument (Bruker Daltonics).
# [5] = biological target: T3, mouse big-ET-1 (cleavage by mouse ECE-1); experiment: NFAT luciferase reporter assay (293/ETaR/NFAT-Luc cells) for blocking of ECE-1-mediated cleavage; format: cell-based; conditions: read-out: Blocking IC50 20 nM mBig-ET-1 + 5 nM mECE1; human Fc mAbs (Table 5)
# Description: (§2) Briefly, HEK293 cell lines were generated to stably express full-length human endothelin receptor type A (ETaR) along with a luciferase reporter element [NFAT (4×)-luciferase]. A single clone was isolated and maintained in 10% FBS, DMEM, NEAA, Pen/Strep, and 500 μg/ml G418 and 100 μg/ml hygromycin B.
# (§3) Both human and mouse big-ET-1 blocking experiments were allowed to incubate (37° C.; 5% CO2) overnight. The next morning these solutions were added to the 293/ETaR/NFAT-Luc cells (20,000 cells/well) and luciferase activity was detected after 5.5 hrs (37° C.; 5% CO2) using a Victor X plate reader (Perkin Elmer). The amount of luciferase activity observed under these conditions is a proportional representation of the amount of small-ET-1 generated from cleavage of either mouse or human big-ET-1.
# [6] = biological target: T4, human big-ET-1 (cleavage by human ECE-1); experiment: as above; format: cell-based; conditions: read-out: Blocking IC50 10 nM hBig-ET-1 + 3 nM hECE1; human Fc mAbs (Table 5)
# Description: as §2, §3
molecule,measurement,setting,value
"H2M6490N: anti-big-ET-1 antibody, mouse IgG2 Fc; HCVR/LCVR SEQ ID NO: 18/26 (antibody, V domains shown, mouse IgG2 Fc) VH: EVQLLESGGGLVQPGGSLRLSCAASGFTFSSYAMTWVRQAPGKGLECISAISGSGYSTYYADSMKGRFSISRDNSKNTLYLQMNRLRAEDTAVYYCTKGGRILEWLLPFDFWGQGTLVTVSS VL: DVVMTQSPLSLPVTLGQPASISCRSSQSLVYSDGNTYLIWFQQRPGQSPRRLIYKVSNRDSGVPDRFSGSGSGTDFTLIISRVEAEDVGLYYCMQGTHWPPTFGGGTKVEIK",Mean Pressure Change,"[1]; Study 1: antibody 150 μg i.v., time 0 min, cumulative big-ET-1 0.00E+00 Moles",0 mmHg
same,Mean Pressure Change,"[1]; Study 1: antibody i.v., time 30 min, cumulative big-ET-1 3.85E−11 Moles, mAb:big-ET-1 26.0",−0.6 ± 2.6 mmHg
same,Mean Pressure Change,"[1]; Study 1: antibody i.v., time 45 min, cumulative big-ET-1 1.16E−10 Moles, mAb:big-ET-1 8.7",−1.0 ± 3.5 mmHg
same,Mean Pressure Change,"[1]; Study 1: antibody i.v., time 60 min, cumulative big-ET-1 2.32E−10 Moles, mAb:big-ET-1 4.3",4.0 ± 4.7 mmHg
same,Mean Pressure Change,"[1]; Study 1: antibody i.v., time 75 min, cumulative big-ET-1 4.66E−10 Moles, mAb:big-ET-1 2.1",18.2 ± 9.6 mmHg
same,Mean Pressure Change,"[1]; Study 1: antibody i.v., time 90 min, cumulative big-ET-1 8.16E−10 Moles, mAb:big-ET-1 1.2",32.5 ± 20.8 mmHg
same,Mean Pressure Change,"[1]; Study 1: antibody i.v., time 105 min, cumulative big-ET-1 1.28E−09 Moles, mAb:big-ET-1 0.8",25.1 ± 8.3 mmHg
same,Mean Pressure Change,"[1]; Study 1: antibody i.v., time 120 min, cumulative big-ET-1 1.87E−09 Moles, mAb:big-ET-1 0.5",−15.4 ± 8.2 mmHg
same,Mean Pressure Change,"[1]; Study 2: antibody s.c. ~24 hr before challenge, time 0 min, cumulative big-ET-1 0.00E+00 Moles",0 mmHg
same,Mean Pressure Change,"[1]; Study 2: antibody s.c. ~24 hr before, time 30 min, cumulative big-ET-1 3.85E−11 Moles, ratio 26.0",1.7 mmHg
same,Mean Pressure Change,"[1]; Study 2: antibody s.c. ~24 hr before, time 45 min, cumulative big-ET-1 1.16E−10 Moles, ratio 8.7",7.6 mmHg
same,Mean Pressure Change,"[1]; Study 2: antibody s.c. ~24 hr before, time 60 min, cumulative big-ET-1 2.32E−10 Moles, ratio 4.3",14.9 mmHg
same,Mean Pressure Change,"[1]; Study 2: antibody s.c. ~24 hr before, time 75 min, cumulative big-ET-1 4.66E−10 Moles, ratio 2.1",52.1 mmHg
same,Mean Pressure Change,"[1]; Study 2: antibody s.c. ~24 hr before, time 90 min, cumulative big-ET-1 8.16E−10 Moles, ratio 1.2",45.8 mmHg
same,Mean Pressure Change,"[1]; Study 2: antibody s.c. ~24 hr before, time 105 min, cumulative big-ET-1 1.28E−09 Moles, ratio 0.8",12.0 mmHg
same,arterial pressure response to human big-ET-1 challenge (in words),"[1]; ~2 mg/kg antibody, 30 min (i.v.) or 24 hr (s.c.) before challenge",maintained baseline mean arterial pressure until the amount of human big-ET-1 peptide approached the molar equivalent of antibody on board; also recorded: maintained normal arterial pressures longer than those mice that were treated with isotype control antibody; also recorded: effective in inhibiting endothelin-1-mediated elevation in arterial pressure in vivo
same,binding to human big-ET-1 (in words),[2],high affinity binding
same,ka,[2],209000 M/s
same,kd,[2],0.00399 s⁻¹
same,binding to mouse big-ET-1 (in words),[3],did not show any binding
same,Kd,"[3]; analyte mouse big-ET-1, mAb capture, KD=kd/ka",> 1000 nM
same,cleavage of human big-ET-1 by mouse ECE-1 (in words),[4],no C-term product was detected
same,"Detection of C-term Peptide Product, 0 min","[4]; Human big-ET-1, mouse ECE-1, 0 min",−
same,"Detection of C-term Peptide Product, 15 min","[4]; Human big-ET-1, mouse ECE-1, 15 min",−
same,"Detection of C-term Peptide Product, 30 min","[4]; Human big-ET-1, mouse ECE-1, 30 min",−
same,"Detection of C-term Peptide Product, 60 min","[4]; Human big-ET-1, mouse ECE-1, 60 min",−
"H4H6490N2: anti-big-ET-1 antibody, human IgG4 Fc; HCVR/LCVR SEQ ID NO: 402/410 (antibody, V domains shown, human IgG4 Fc) VH: EVQLLESGGGLVQPGGSLRLSCAASGFTFSSYAMTWVRQAPGKGLEWISAISGSGYSTYYADSMKGRFSISRDNSKNTLYLQMNRLRAEDTAVYYCTKGGRILEWLLPFDFWGQGTLVTVSS VL: DVVMTQSPLSLPVTLGQPASISCRSSQSLVYSDGNTYLIWFQQRPGQSPRRLIYKVSNRDSGVPDRFSGSGSGTDFTLIISRVEAEDVGLYYCMQGTHWPPTFGGGTKVEIK",IC50,[5],> 100 nM
same,IC50,[6],> 100 nM
"H4H6492N2: anti-big-ET-1 antibody, human IgG4 Fc; HCVR/LCVR SEQ ID NO: 418/426 (antibody, V domains shown, human IgG4 Fc) VH: EVQLVESGGGLVKPGGSLRVSCVASGFTFSNAWMTWVRQTPGKGLEWVGRIKSRTDGGTVDYVAPVKGRFTISRDDSKNTLYLQMNSLKAEDTAVYYCRADLDYWGQGTLVTVSS VL: DVVMTQSPLSLPVSLGQPASISCRSSQSLVHSDGITYLNWFQQRPGQSPRRLIYKISNRDSGVPDRFSGSGSGTDFTLKFSRVEAEDVGVYFCMQGTHWPYTFGQGTKLEIK",IC50,[5],> 100 nM
same,ka,[2],424000 M/s
same,kd,[2],0.0297 s⁻¹
